Tested on: MS2 coat protein
Experiment: apparent KD of MS2 coat protein; designed switch direction (-1 OFF switch, 1 ON switch): -1; higher = weaker reporter binding
In short: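 Designed RNA switches with common flanks were transcribed on Illumina chips by stalled E. coli RNA polymerase and titrated with SNAP-549-labelled MS2 coat protein, from 0.7 or 1.5 nM doubling to 3 µM, in Tris-HCl pH 7.5 buffer with KCl, MgCl2, BSA, DTT, tRNA and Tween-20. Steps lasted 0.8–1.5 h (lowest) to 10–20 min (highest). Titrations ran without input, with 200 uM small-molecule ligand, or with an oligonucleotide input. Normalised cluster fluorescence was curve-fitted, and apparent KD is the per-design median over clusters.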

[1] = Eterna round: R95, input ligand: FMN 200 uM
[2] = Eterna round: R95, input ligand: microRNA oligo, concentration not stated
[3] = Eterna round: R95, input ligand: none
[4] = input ligand: microRNA oligo, concentration not stated

Sequence	apparent KD of MS2 coat protein [1] [nM]	apparent KD of MS2 coat protein [2] [nM]	apparent KD of MS2 coat protein [3] [nM]	apparent KD of MS2 coat protein (input ligand: FMN 200 uM) [nM]	apparent KD of MS2 coat protein [4] [nM]	apparent KD of MS2 coat protein (input ligand: none) [nM]
AUGUUUGUAGUGAGGAUAUCGUUGAGGAAGAGGAUCGAGAAGGCACAUGAGGAUCACCCAUGUAAGAUGUGGUA [JR_BMOE4_Sub081] (puzzle: Brourd's mod of Exclusion 4)	69.9	61.2	55.5	–	–	–
AUUAAACGUGUAGGAUAUGCGUGGCGAAGCUAUGCAGAAGGACAUGAGGAUCACCCAUGUUCUAGCGUCUGCGUACAGAUGCUA [JL eng1 1.35 mod 5] (Eterna round: R96, puzzle: Exclusion NG 1)	–	–	–	25.1	11.4	16.3
AUUAAAUAAGGAUAUACAUGAGGAUCACCCAUGUGUAGCAAGGUGUUGCGAUCCGCAAGUAGAAGGUGUAUAAU [Eternabot (L2) Solution 2] (Eterna round: R97, puzzle: Exclusion 3)	–	–	–	49.6	–	32
AUUAAUGUCAAAGGAUAUCAGCACGUUUAGUGCUGAGAAGGUUGAACAUGAGGAUCACCCAUGUAGAUCAUUAAUAAUUUAAUU [ENG1/10-B1] (Eterna round: R96, puzzle: Exclusion NG 1)	–	–	–	23.5	18.9	18.2
AUUAAUUGUCAGAUGGGUGACAUGAGGAUCACCCAUGUCACAAGCUUUUUGCUCGUCUUAUAAUUAACCCAUCUGAC [Stov1/11-A2] (Eterna round: R97, puzzle: Sensor, turn-off variant 1)	–	–	–	14.1	–	13.3
AUUACUAACACGAAAGUGUUAGUACAAUAAGCUUGUGAAACAUGAGGAUCACCCAUGUCCUCAUAAGCUCGUCUUAA [salish99_TOv2_r3_010] (puzzle: Sensor v3, turn-off variant 2)	14	217	11.9	–	–	–
AUUAGAUGAGGAUAUACAUGGUUGCGGGUGCGGCAGGAUCUACAUGAGGAUCACCCAUGUAGAAGGCAUGUAUC [EX2 C.22] (Eterna round: R97, puzzle: Exclusion 2)	–	–	–	16.3	–	13.8
AUUAGCGUAGGAUAUUGAUACAUGUACAUGAGGAUCACCCAUGUGAGGUGAGUCUUGGAUUAAGAAGGGCGAAGAA [EX5 #37] (Eterna round: R97, puzzle: Exclusion 5)	–	–	–	1080	–	1270
AUUAGUAUCUAGGAUAUCUAGUACAUAGUAUCUAGAGAAGGAGAUACAUGAGGAUCACCCAUGUUCUGUGUUCU [Exclusion 6 - 1:d] (puzzle: Exclusion 6)	–	20.3	–	–	–	–
AUUAUAAAUGUAGGAUAUCUGCACGAUUAGUGCAGAGAAGGACAUGAGGAUCACCCAUGUAGAUCAAUAAUAAUUAAUUUAAUU [ENG1/5-B1] (Eterna round: R96, puzzle: Exclusion NG 1)	–	–	–	184	34	39.8
AUUAUAUAGACAGGAUAUUGAUUAUUAUUUUAACAUGAGGAUCACCCAUGUAACCUUAUGUGUAACAAGAAGGGUCAUUUAUUA [Title] (Eterna round: R96, puzzle: Exclusion NG 2)	–	–	–	188	99.6	106
AUUAUAUAGGUAGGAUAUAGAAUAUUAUUUUAACAUGAGGAUCACCCAUGUAACCUUAUGUGUAGCUAGAAGGACCAUUUAUUA [Title] (Eterna round: R96, puzzle: Exclusion NG 2)	–	–	–	–	64.6	–
AUUAUGUAAGGAUAUCUUACAUGUGACUUCGGUCACUGUUAAGAGAAGGUACAUGAGGAUCACCCAUGUAGAAC [Ex4-3: 47] (puzzle: Exclusion 4)	–	18.1	–	–	–	–
AUUAUGUUAGGAUAUUAUUUGCCCUACUAAGGCACGAGAAGUAAGAAGGGACAUGAGGAUCACCCAUGUUGGAG [Eternabot (L2) Solution 71] (Eterna round: R97, puzzle: Exclusion 4)	–	–	–	30.3	–	42.7
AUUAUUUAAGUCAGGAUAUCGUAUUUAUUUAAAUACGAGAAGGGACAUGAGGAUCACCCAUGUAAUAAAUUUUA [JMFs Solution 2] (puzzle: Brourd's mod of Exclusion 4)	–	16.6	–	–	–	–
AUUCAACAUGAGGAUCACCCAUGUGAGGAUAUGCGAGAAUAGACUUCGGUCAGAUAGAGCAGAAGGCGCAGAUA [EX1 #5] (Eterna round: R97, puzzle: Exclusion 1)	–	–	–	22	–	29.1
AUUCCACAUGAGGAUCACCCAUGUGAGGAUAUCAUGCUUCGUAGUAAACUACGAAGUGUGAGAAGGCACAAUGG [Omei Ex1 C3] (Eterna round: R97, puzzle: Exclusion 1)	–	–	–	183	–	62
AUUCCUUGUGUUAGGAUAUGUCACUACCGUAUGCGACAGAAGGAACAUGAGGAUCACCCAUGUGAGUUAGCCGA [Usened] (puzzle: Brourd's mod of Exclusion 4)	–	52.4	–	–	–	–

Sequence	apparent KD of MS2 coat protein [1] [nM]	apparent KD of MS2 coat protein [2] [nM]	apparent KD of MS2 coat protein [3] [nM]	apparent KD of MS2 coat protein (input ligand: FMN 200 uM) [nM]	apparent KD of MS2 coat protein [4] [nM]	apparent KD of MS2 coat protein (input ligand: none) [nM]
AUUGAUAGCACAGGAUAUUGAGAUUUGAAUUGACAAGAAGGGUGUACAUGAGGAUCACCCAUGUAAUGGGAGAAUGAUUGAUUA [JR_ExcNG1_Sub001] (Eterna round: R96, puzzle: Exclusion NG 1)	–	–	–	1260	1040	1640
AUUGAUGUUGAGGAUAUGCAUAUAUUUAUACUAGCAGAAGGCGAUACAUGAGGAUCACCCAUGUUCAUGGAAGU [JR_E6_Sub093] (puzzle: Exclusion 6)	39.1	24.7	28	–	–	–
AUUGAUGUUGAGGAUAUGCUUUUAUUUAUAAUAGCAGAAGGCGAUACAUGAGGAUCACCCAUGUUCAUGGUAGU [JR_E6_Sub095] (Eterna round: R96, puzzle: Exclusion 6)	–	–	–	77.6	52.3	63.4
AUUGAUGUUGAGGAUAUGCUUUUAUUUAUAAUAGCAGAAGGCGAUACAUGAGGAUCACCCAUGUUCAUGGUAGU [JR_E6_Sub095] (puzzle: Exclusion 6)	–	50.4	–	–	–	–
AUUGUAGAUGUGAGGAUAUCGUAGAUUUUUUGAAACGAGAAGGCACAUGAGGAUCACCCAUGUAAGAUGUAGGU [JR_BMOE4_Sub053] (puzzle: Brourd's mod of Exclusion 4)	45.8	118	298	–	–	–
AUUGUAUAGGAAGGAUAUAGAAUAUUAUUUUAACAUGAGGAUCACCCAUGUAACCUUAUGUGUAGCUAGAAGGUCCAUUUAUUA [Title] (Eterna round: R96, puzzle: Exclusion NG 2)	–	–	–	–	90.2	–
AUUGUUUAUGUAGGAUAUGCCUGGCGUGCCUUCGCAGAAGGACAUGAGGAUCACCCAUGUAUUGCGGUCUGCGUUCAGAUCGCG [salish99_ExNG1_r4_026] (Eterna round: R96, puzzle: Exclusion NG 1)	–	–	–	65.3	34.3	47.5
AUUGUUUAUGUAGGAUAUGCCUGGCGUGCCUUUGCAGAAGGACAUGAGGAUCACCCAUGUAUUGCGGUCUGCGUUCAGAUCGCU [salish99_ExNG1_r4_033] (Eterna round: R96, puzzle: Exclusion NG 1)	–	–	–	44.4	28.7	30.7
AUUGUUUGAUACCUCUAAUACAUGAGGAUCACCCAUGUUAUCGAGGAUAUGCAUUAGAGUGGUUAGCAGAAGGCGAAGUAAUUG [JR_ExcNG3_Sub030] (Eterna round: R96, puzzle: Exclusion NG 3)	–	–	–	18.5	14.2	17.1
AUUUAACAUGAGGAUCACCCAUGUGAGGAUAUGUAAAUUUUAAACAAAUAGGAAAUGAACAGAAGGCACACCGG [JR_Exclusion1_Sub006] (puzzle: Exclusion 1)	61.7	41.6	37	–	–	–
AUUUAAUUUAAUAAGAUCACAUGAGGAUCACCCAUGUAUAUAUAGGAUAUCAGCUCGAAUAGAGCUGAGAAGGAUAUAUACAUG [ExNG3/8-A4] (Eterna round: R96, puzzle: Exclusion NG 3)	–	–	–	–	15.4	–
AUUUAGCAAGCCUGAUCCUACAUGAGGAUCACCCAUGUAGUUCGUCUUAUUUGAAGACAACACAAAAGUGUUGUCUU [Omei Mir OFFv1 B7] (Eterna round: R97, puzzle: Sensor, turn-off variant 1)	–	–	–	18.3	–	18.5
AUUUCGGCAGGAUAUACAUGAGGAUCACCCAUGUAAAUUUUUCGUUUAACUUGAAUGUGUAGAAGGGCCAUUUA [Ex3 #61] (Eterna round: R97, puzzle: Exclusion 3)	–	–	–	21.8	–	26.6
AUUUGGUCAGGAUAUUGUUAGUUUAGUUGUUUGUAUUAGUUCGAGAAGGGACAUGAGGAUCACCCAUGUGAUUU [Ex4 #75] (Eterna round: R97, puzzle: Exclusion 4)	–	–	–	87.1	–	100
AUUUUAAUAUAGGAUAUCGAAAUAAUUAUUUAACGAGAAGGAUGAACAUGAGGAUCACCCAUGUGGUAUCAUGG [Mat - Exclusion 6 - JL Mod - D32] (puzzle: Exclusion 6)	178	159	163	–	–	–
AUUUUAAUAUAGGAUAUCGAAAUUAUUAUUUAACGAGAAGGAUAAACAUGAGGAUCACCCAUGUGGUAUCAUGG [JMFs Solution 1] (puzzle: Exclusion 6)	138	134	196	–	–	–
AUUUUAAUAUAGGAUAUCGAAAUUAUUAUUUAACGAGAAGGAUGAACAUGAGGAUCACCCAUGUGGUAUCAUGG [Mat - Exclusion 6 - JL Mod - D31] (puzzle: Exclusion 6)	–	192	–	–	–	–

From the supplement of paper PMC9170038
